Experimental data: US20110104713A1, “PRODUCTS AND PROCESSES FOR MODULATING PEPTIDE-PEPTIDE BINDING DOMAIN INTERACTIONS” (priority 2002, published 2011)

Experiments:
[1] = biological target: T1, Plk-1 PBD (residues 326-603) (Homo sapiens, UniProt P53350); assay: Isothermal titration calorimetry of peptides with Plk-1 PBD; format: binding; settings: ITC; no detectable binding for a Plk1 PBD concentration of at least 150 μM
T1 construct: sample cell containing 15 μM Plk-1 PBD (residues 326-603); GST (N, cleaved yes); made in house; host or cells: E. coli BL21
T1 sequence (P53350 326-603): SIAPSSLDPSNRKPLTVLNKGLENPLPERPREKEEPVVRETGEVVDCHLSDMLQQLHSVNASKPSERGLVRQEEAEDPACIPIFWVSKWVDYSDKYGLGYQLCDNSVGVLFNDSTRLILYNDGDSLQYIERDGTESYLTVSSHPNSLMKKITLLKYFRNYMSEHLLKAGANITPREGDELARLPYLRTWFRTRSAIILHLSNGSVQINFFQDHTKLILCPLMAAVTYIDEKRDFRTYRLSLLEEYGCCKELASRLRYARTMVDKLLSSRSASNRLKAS
Procedure: For deletion mapping of the PBD, C-terminal fragments of Plk-1 were generated by PCR and cloned into the EcoRI and XhoI sites of pcDNA3.1 (Invitrogen). For production of recombinant PBD as a GST fusion in bacteria, the 326-603 fragment of Plk-1 was ligated into the EcoRI and XhoI sites of pGEX-4T (Pharmacia), transformed into BL21, and induced in late log-phase cells at 37° C. for 3.5 hours in the presence of 0.4 mM IPTG. For measurements of peptide binding affinity by ITC, GST-Plk-1 (326-603) was isolated from bacterial lysates using glutathione agarose, cleaved from GST using thrombin (10 U/mL), and purified by anion exchange chromatography (Q Sepharose HP, Pharmacia).
Peptides were synthesized by solid phase technique with two C-terminal lysines to enhance solubility, purified by reverse phase HPLC following deprotection, and confirmed by MALDI-TOF 9 Matrix-assisted laser desorption/ionisation-time of flight mass spectrometry. Some peptides contained an additional tyrosine residue to facilitate concentration determination by optical absorbance. calorimetry measurements were performed using a VP-ITC microcalorimeter (MicroCal Inc., Studio City, Calif.). Experiments involved 10 μL injections of peptide solutions (150 μM-180 μM) into a sample cell containing 15 μM Plk-1 PBD (residues 326-603) in 50 mM Tris/HCl (pH 8.1), 200 mM NaCl, 2 mM TCEP. Thirty injections were performed with a spacing of 240 s and a reference power of 25 μCal/s. Binding isotherms were plotted and analyzed using Origin Software (MicroCal Inc. Studio City, Calif.).
Peptides were synthesized by solid phase technique with two C-terminal lysines to enhance solubility. Some peptides contained an additional tyrosine residue to facilitate concentration determination by optical absorbance. Isothermal titration calorimetry was performed using a VP-ITC microcalorimeter (MicroCal Inc. Studio City, Calif.) by titration of 15-40 μM solutions of PBD proteins with 30×10 μl injections of […] peptide in a starting volume of 1.4-2.0 ml. Binding isotherms were plotted and analyzed using Origin Software (MicroCal Inc. Studio City, Calif.). Binding of in vitro translated Plk1 PBD (wild type and mutants) to bead-immobilized pTP and TP peptide libraries was performed as described previously (Elia et al., Science 299:1228-1231, 2003). pTP and TP indicate the peptide libraries biotin-Z-Gly-Z-Gly-Gly-Ala-X-X-B-X-pThr-Pro-X-X-X-X-Ala-Lys-Lys-Lys SEQ ID NO: 30 biotin-Z-Gly-Z-Gly-Gly-Ala-X-X-B-X-Thr-Pro-X-X-X-X-Ala-Lys-Lys-Lys SEQ ID NO: 31, respectively, where pThr is phosphothreonine, Z is aminohexanoic acid, X denotes all amino acids except Cys, and B is a biased mixture of the amino acids P, L, I, V, F, M, W.

[2] = biological target: T2, GST-Plk-1 PBD (residues 326-603) interaction with mitotic phosphoproteins (Homo sapiens, UniProt P53350); assay: Peptide competition of GST-Plk-1 PBD pull-down of MPM-2 mitotic phosphoproteins from HeLa lysates; format: binding; settings: 320 μM peptide, 45 minutes at 4° C., nocodazole-arrested HeLa lysates
T2 construct: GST-Plk-1 (residues 326-603) was immobilized on glutathionine beads; made in house; host or cells: E. coli BL21
T2 sequence (P53350 326-603): as above
Procedure: HeLa cells were arrested in interphase or G2/M by treatment with aphidicolin (5 μg/mL) or nocodazole (50 ng/mL), respectively, for 16 hours. Cells were lysed in 25 mM Tris/HCl (pH 7.5) containing 125 mM NaCl, 0.5% NP-40, 5 mM EDTA, 2 mM DTT, 4 μg/mL pepstatin, 4 μg/mL aprotinin, 4 μg/mL leupeptin, 1 mM Na3VO4, 50 mM NaF, and […] microcystin, and 150 μgs of lysate incubated with 10 μL of glutathione agarose beads containing 2-5 μg of GST-Plk-1 (residues 326-603), GST-Pin1, or GST for 30 minutes at 4° C. Beads were washed four times with lysis buffer. Precipitated proteins were eluted in sample buffer and detected by blotting with monoclonal MPM-2 (Upstate Biotechnology, Inc.) or polyclonal anti-Cdc25C (Santa Cruz Biotechnology, Santa Cruz, Calif.). For peptide competition experiments, GST-Plk-1 (residues 326-603) was immobilized on glutathionine beads and preincubated with 320 μM of PoloBoxtide-optimal, −8T, or −7V for 45 minutes at 4° C. For binding experiments involving mutant cdc25C, HeLa cells were transfected with wild-type and mutated versions of HA-tagged Cdc25C in pECE using Superfect (Qiagen, Valencia, Calif.). Nocodazole (50 ng/mL) was added seventeen hours after transfection and cells incubated for an additional 14 hours to arrest them in G2/M. Point mutations of Cdc25C were constructed using the QuickChange site-directed mutagenesis system (Stratagene) and verified by DNA sequencing.

MAGPMQ-S-T-P-LNGAKK (MAGPMQSTPLNGAKK) [PoloBoxtide-8T]
peptide binding to Plk-1 PBD by ITC (in words) [1]: complete loss of binding
effect of peptide pre-incubation on GST-Plk-1 PBD binding of MPM-2 epitopes [2]: not
effect of peptide pre-incubation on GST-Plk-1 PBD binding of MPM-2 epitopes ([2]; listed as 8T): had no effect
